Our source for the Km, kcat and kcat/Km values is article PMC6980832, “Crystal structures of Triosephosphate Isomerases from Taenia solium and Schistosoma mansoni provide insights for vaccine rationale and drug design against helminth parasites” (PLoS Neglected Tropical Diseases, 2020).

Substrate in data set [1]: O=CC(O)COP(=O)(O)O
The experiment in a line: purified protein. Particulars: 0.1 M TEA-HCl pH 7.4, 10 mM EDTA, 0.2 mM NADH, 21 °C, G3P 0 to 5 mM, G3P to DHAP direction. It counts as biochemical, Schistosoma mansoni.

Substrate in data set [2]: O=CC(O)COP(=O)(O)O
The experiment in a line: purified protein. The settings on record: 0.1 M TEA-HCl pH 7.4, 10 mM EDTA, 0.2 mM NADH, 21 °C, G3P 0 to 5 mM, G3P to DHAP direction. It counts as biochemical, Taenia solium.

A word on the Km: it is the concentration of substrate that gives half-maximal velocity. For orientation: kcat means the number of substrate molecules converted per active site and unit of time at saturation. Broadly, the kcat/Km is the second-order rate constant that governs catalysis at low substrate concentration.

B1: SmTPI (Schistosoma mansoni) (protein)
chain: MSGSRKFFVGGNWKMNGSRDDNDKLLKLLSEAHFDDNTEVLIAPPSVFLHEIRKSLKKEIHVAAQNCYKVSKGAFTGEISPAMIRDIGCDWVILGHSERRNIFGESDELIAEKVQHALAEGLSVIACIGETLSERESNKTEEVCVRQLKAIANKIKSADEWKRVVVAYEPVWAIGTGKVATPQQAQEVHNFLRKWFKTNAPNGVDEKIRIIYGGSVTAANCKELAQQHDVDGFLVGGASLKPEFTEICKARQR
notes: full length, codon-optimised synthetic gene, E. coli tpi-null strain, modified pET19; extra Gly-Pro-His before Met1; homodimer about 50 kDa
Turning to B1, in the data set “purified protein [1]”, the Km was found to be 480 ± 70 µM, the kcat stood at 2870 ± 138 s⁻¹ and the kcat/Km amounted to 5.8e+06 M⁻¹ s⁻¹.

B2: TsTPI (Taenia solium) (protein)
chain: MTRKLFVGGNWKMNGSYSHINTFFDTLQKADTDPNADIVIGVPACYLKYAQDKAPKGIKIAAENCYKVGSGAFTGEISTEMIKDCGCEWVILGHSERRHIFGESNELIGEKVKHALDSGLNVIPCIGELLSEREAGKTNDVCFAQMDAIAKNVPSKEAWDKVVIAYEPVWAIGTGKTATPAQAQEVHKVVRDWIRKHVDAGIADKVRILYGGSVTASNAKDLGTQPDVDGFLVGGASLKPDFITIINARR
notes: full length, codon-optimised synthetic gene, E. coli tpi-null strain, modified pET19; extra Gly-Pro-His before Met1; homodimer
Consider B2, for which, in “purified protein [2]”, the Michaelis-Menten constant (Km) is 310 ± 30 µM, the kcat was found to be 993 ± 44 s⁻¹ and the catalytic efficiency (kcat/Km) was found to be 3.15e+06 M⁻¹ s⁻¹.
